The data set can be described thus: protease stability score; higher = more stable; yeast display proteolysis, trypsin and chymotrypsin.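 Also: log10 excess protease needed over predicted unfolded state with 0 meaning unfolded.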

For the sequence “DEKIVQAMKRYMDARQKGDPEDFNNLVDPNVRLNVGDKRVHGRERISEQIQREQRKMRIEIKHVEFRDQGEKVQLRVKYVVEINGRPRHASQRMEASLDDGKIKSIEIRVDEEVKKIEKV”, the protease stability score is -0.088.

On to “DEKKAEDAARQMLEALRTGDPKRMVDHMDPNARALVGDTRYHGREEASKMVEHIRRRVDHVRVDNFRVRGNKLHLHAVFDSNGRRERVQIRADVHNGKIKVFEITSQ”, for which the protease stability score was determined as 0.342. In turn, “DEKKAEELAKKAFKYIENGDREEAQKMLKDNVEYHYANTTYHGKDAAKFVVDVVQKVGVEVKVQEQEVRGNTVRARFQYKNGDTEVETEVEVTYEGDRVKKAEVKLSEEVMKLVHQG” returned a protease stability score of 0.566. Under “DEKKAEELARTVFEMADKGDKDTLRKIGMPNGEYKYVDKRYEGEQLALILVEQIKKVGAQVKVKRMEVRGDKVQADFDYEYGDKTVRTTARLEYKGDKLLRAEVEVSEEVKKIMTQG” stands -0.073. In turn, “DEKKAEEMLRRVVKLFRNGDVETVRKMGKDDVEVKYLDETRHGPDAMKKMLEKMKKLGAEVEYKEVHVEGDKATVKVEANIDGTTVRFHVTYQVKDHRVENVKVEYSEKAKKAIKHG” yielded a protease stability score of 0.754.

For “DEKKAEEVATRVLEYIRDGNADDVKKLGKEGGQVQLGDTQLNGVDQLYKYVQDFHKQGIHVEYKEHEAKGDTVTFHTTARRGDAQIEFEVHYVVKGDVVERMEVRQDRKQVKEFKDS”, the protease stability score was -0.084. The sequence “DEKKAKEAAHRLLEAMVTGDPRKLNENADEDVQVEYGDKSYTGREKLNEWAHEFQKRVDHVRIESIHQRGDTATVKVRVEHNGETDTFVLIVEAHNGRAKRIRQETR” displayed a protease stability score of 1.11. “DEKKAKELAETMFKYIQNGDEEKAQKYVDDNVEYKYIDKEYEGKDVVKEVVDKIKKLGVEVKLKRAEVKGDRVTADFEYKHGDNTVRTTVEVQYEGDRVKKARVELTDEARKVIDKG” registered a protease stability score of 0.352. Sequence “DEKKALEIAEKVARYVAEGNSDKAKELGKEGVEAKVGDTTVHGPDQLKEYVKKVKDQGNRYEYKETHKEGNTVQFKTEVEKGNAKVEFTAEYQVEGDKLVRAEVRFNKEQQKKFQKS” displayed a protease stability score of -0.214.

For “DEKKALEVIDRALKYVKNGNKEQVQQMGAPDVEVQNGDARNKGVEEMKKFAERVKKAGNQFEYKEKTTKGNKVKTVVQVTVNGQTIEYEVEVVAEGGKVKHWVVKMDETFKKVVDKS”, the protease stability score is 0.008.

“DEKKALTLAKKAFEVIKKGDKEKAKKLGKPDVKYEYLDKKYTGPEAMEHIVEYVQKLGMEVRVKRNEEKGGTVRVDFDYQRGDQQVRTTAEVEYEGDKLKRFRVEMSEEVKKHITQG”: the protease stability score is 0.093.

Sequence “DEKKAQKLMKKAFKMIKDGNEDEVRKLGKPNVKYEYADQQYEGEDAVRVAVQIVKRVGAEDKTETQEVKGDTARAVFVYKKGDTEVQTTAEVIYKGDKMEEARVKLSDEVKKVVHQG” showed a protease stability score of 0.124. Next, “DEKKATKVAKQIQDMMVKGDSDKVEKVGKPNVEFQVGDVKMKGPDELKKYYKKVKDVGNELHVKEAKVEGDTVEVHYDLRHGGTQATVTVRIELKDDKVDRAKVDVDEHYKKIVKKG”: -0.068. “DEKKDREAAQKAARAFVKGNKDKVKELGKEDVTAKFGDEEFRGVDQVTKAMEHWLKMGDQMQLREEKDEKNHVKVRTDQRVGGYEVTTEATYHAQGGRVDHAEDREPPEAQKLMQKG”: the protease stability score was -0.258. For “DEKKEEQWVRDVKKHAETGNWHDFWRQADPNVRFQVGDTTLRGREEAVKVAEDMRRQVDHQRVEHVDAHNGKVTVDAVLDINGRQQKVEYVVEMHNGRIKRINFSYS”, the protease stability score was -0.142. For “DEKKERQRAKELVKAMQHGDESKLKELLDENARLNVGDHKFHGMEEAHKTMRELWTRVDHLTVKSVDVTNGKIDIVVVFRHNGKNDRQVLEADVHNGRVRQQQIKSE”, the protease stability score is -0.14. Consider “DEKKIKDLARRVMQYYVSGNTEEVEKLGKDDVQVHFGDQTYHGVEQVKKVVKEFKEYGVELQLKDIQYDGDRADAEVEVHAGGHTWKFTVTVQLDGGKVDNLTFHVSDEAKKAIEHG”, for which the protease stability score was determined as 0.982. Sequence “DEKKIKDLLLKLIEMYVSGNKEEVKKVGKDDVELHAGNQTYHGYEQMAKMAEKLKRYGVKLQITDAKVEGDKLTAKVDFHYGGETQKLEFVVQADGGKVDRMKIELSEEVVKVARKG” came in with a protease stability score of 0.377.

“DEKKIKEYVHELNRAFQNGDEDRLNQMMDKNVRAQYGDKEYHGRENAKKVMKDFRDQFDHLEIHSVNVRGDRVDIEAEAHNNGRTEHWIITIRLHNGHMTSIVIRKS” showed a protease stability score of -0.319. Next, “DEKKIYDLLKKMVEAYVSGNAEEVRKLLKDDGTLDVGDQQYHGVEQVTKAAEEFQKYGVELHLTDYRFDGDRVDVKAVAHLGGNTWEFTVTVQADGGKVDRLVFHVSEEAVKYIQKG”: 1.28. “DEKKIYEVLHKAVQMYVSGNDEEVRKLLKKDAEIEVADHKYRGVDEVVKVVDQFRKYGVELQIDDAKFDGNKVNAELTLHAGGETWKFTVTAEADGGKVDKVTFHVTEEVKKRIQKG” had a protease stability score of -0.045. Sequence “DEKKKAEEQHKKLEHALREGDPDEAKKMMDPNVRAQVGETKFHGREQMAKFWMTFNKRADHVEFELRDLHIENGRIRIHAVVRADVNGQTVRINIRIILTKHGDQFVAVRIEQK” had a protease stability score of 0.499. The sequence “DEKKLEELLRKLFEAAQKNNVDEMRKFLAPDVQYKYGDKRYEGEKVADTAVKVMREVGAEVRVKEEEVKGGEAEATFQYHKGDKTVETTARVRYEGDKVKEVEVKLSEEVKKILEQG” yielded a protease stability score of 0.128. Next, “DEKKLEEVAKKVMDAMRKGDSETLVKLGKPDVTFKVADIEFKGQDQLRKYYKLDQDVGVELHLKEEKKEGNKFTMVYDARFGGTQDTVEVEVEVKDEKVDKARAKFTEEYAKHIQKG”: 0.586; “DEKKLHELLLKMVQYYVSGHTEKVKEMGKDDVNLNAGDYTYHGVEQVATVADRMRQYGVKLEVKNRRQEGDRLEVEVEFHVGGQTVTVTFKVKADGGKVDEMRIDFSEEADKMARKG”: -0.157; “DEKKLKDKAETLVENFKTGNEEEFSRMADENATLVVGDKTLRGREDLQTFISEFKKTVDHVEVRHVTADNGRVTIDMVVDINGRRVRVHVVIKFKNGHIKDVRVDPRMKRAMDQ”: 0.905. Under “DEKKLKELAEELVKADRTGNPDMIKKLGKPDVEFHVANVTMHGSEQVYKYYEKVQRQGNEVHIKRQEVRGDHVEVHYTVKVGGTEVEVTMRLHAKDHKVDKAEAHFNKEYLDHVKKG” stands 0.413; under “DEKKLLDLARVALEYLQRGNSDQFAKMLDEGGQMNVGDTQINGSDQVKKYVKKFKDQGVHVEYKEQEEKGDTVTVKTEAELGDAKVTFEVHYVAKGDRVERVEVRMNKEQITEFKKS”, 0.272. In turn, “DEKKLLEIAKEVADYVRNGNADQVAKLGKEGIQANFGDEQVNGPDQMREYVKKVKDLGLHAEYKEEKYEGDTVELHTQAHLGDVTADFTVTYIVKGDKLDKVEVRFNKEQMKKFKTS” registered a protease stability score of 0.007. For the sequence “DEKKLQELLKKAFEAALNGDEDKLRKLLAPNVKYKYGDTEREGEDAVRLVMQIVKHIGVEVKKQEEEVKGGRMRAVFRYDNGSQTVQTTAEVQYEGDKVKEVRVEITDEIKKVMQRG”, the protease stability score stood at 1.17. Under “DEKKQAEDFFDTWVEIVKSGDEEKAQQMADPNVRFQIGDKSWRGREDFKKFLKTQLKRADHIRFEVQRITVRPNHIEVQFRIVIDNNGQDSRDTLTFVIKVNGDRLRLVEMHEG” stands 1.43; under “DEKKQAKRLHETMDRILTQGNPHEAKHLFDKDARIDVGDKKVHGREQIAKSLAERVRQVDHIHNQVDHVEVDNGQLNMTVRFQQETNGKTHDYSAQHRVDIDGDKVKVVKVTHQ”, -0.336. Regarding “DEKKQQELAETFWKIFKTGDEEKLKQMMPQDVRARYGDKSVTGRDRIVTTIKKRVKRADHINVKHISVHNGKIHIDAVIVVDGRKQRDTINIKMRNGHIKNINVDPEKDKQNFS”, the protease stability score was -0.217.

Values taken from the NTF2 design screens of Basanta et al. (2020).
